Laboratory results published in patent US7803382B2, “Method for inducing immune response to NY-CO-58” (Ludwig Institute for Cancer Research Ltd., priority 2001, dated 2010).

B1: SSX-2: serologically defined colon cancer antigen, protein SEQ ID NO:28 (protein, listed as Homo sapiens)
chain: MNGDDAFARRPTVGAQIPEKIQKAFDDIAKYFSKEEWEKMKASEKIFYVYMKRKYEAMTKLGFKATLPPFMCNKRAEDFQGNDLDNDPNRGNQVERPQMTFGRLQGISPKIMPKKPAEEGNDSEEVPEASGPQNDGKELCPPGKPTTSEKIHERSGPKRGEHAWTHRLRERKQLVIYEEISDPEEDDE
B2: CO-9 (HDAC 5): serologically defined colon cancer antigen, protein SEQ ID NO:18 (protein, listed as Homo sapiens)
chain: EFLLSKSKEPTPGGLNHSLPQHPKCWGAHHASLDQSSPPQSGPPGTPPSYKLPLPGPYDSRDDFPLRKTASEPNLKVRSRLKQKVAERRSSPLLRRKDGTVISTFKKRAVEITGAGPGASSVCNSAPGSGPSSPNSSHSTIAENGFTGSVPNIPTEMLPQHRALPLDSSPNQFSLYTSPSLPNISLGLQATVTVTNSHLTASPKLSTQQEAERQALQSLRQGGTLTGKFMSTSSIPGCLLGVALEGDGSPHGHASLLQHVLLLEQARQQSTLIAVPLHGQSPLVTGERVATSMRTVGKLPRHRPLSRTQSSPLPQSPQALQQLVMQQQHQQFLEKQKQQQLQLGKILTKTGELPRQPTTHPEETEEELTEQQEVLLGEGALTMPREGSTESESTQEDLEEEDEEEDGEEEEDCIQVKDEEGESGAEEGPDLEEPGAGYKKLFSDAQPLQPLQVYQAPLSLATVPHQALGRTQSSPAAPGGMKNPPDQPVKHLFTTSVVYDTFMLKHQCMCGNTHVHPEHAGRIQSIWSRLQETGLLSKCERIRGRKATLDEIQTVHSEYHTLLYGTSPLNRQKLDSKKLLGPISQKMYAVLPCGGIGVDSDTVWNEMHSSSAVRMAVGCLLELAFKVAAGELKNGFAIIRPPGHHAEESTAMGFCFFNSVAITAKLLQQKLNVGKVLIVDWDIHHGNGTQQAFYNDPSVLYISLHRYDNGNFFPGSGAPEEVGGGPGVGYNVNVAWTGGVDPPIGDVEYLTAFRTVVMPIAHEFSPDVVLVSAGFDAVEGHLSPLGGYSVTARCFGHLTRQLMTLAGGRVVLALEGGHDLTAICDASEACVSALLSVKLQPLDEAVLQQKPNINAVATLEKVIEIQSKHWSCVQKFAAGLGRSLRGAQAGETEEAEM
B3: CO-61 (HIP1R): serologically defined colon cancer antigen, protein SEQ ID NO:19 (protein, listed as Homo sapiens)
chain: MFDYMDCELKLSESVFRQLNTAIAVSQMSSGQCRLAPLIQVIQDCSHLYHYTVKLLFKLHSCLPADTLQGHRDRFHEQFHSLRNFFRRASDMLYFKRLIQIPRLPEGPPNFLRASALAEHIKPVVVIPEEAPEDEEPENLIEISTGPPAGEPVVVADLFDQTFGPPNGSVKDDRDLQIESLKREVEMLRSELEKIKLEAQRYIAQLKSQVNALEGELEEQRKQKQKALVDNEQLRHELAQLRAAQLEGERSQGLREEAERKASATEARYNKLKEKHSELVHVHAELLRKNADTAKQLTVTQQSQEEVARVKEQLAFQVEQVKRESELKLEEKSDQLEKLKRELEAKAGELARAQEALSHTEQSKSELSSRLDTLSAEKDALSGAVRQREADLLAAQSLVRETEAALSREQQRSSQEQGELQGRLAERESQEQGLRQRLLDEQFAVLRGAAAEAAGILQDAVSKLDDPLHLRCTSSPDYLVSRAQEALDAVSTLEEGHAQYLTSLADASALVAALTRFSHLAADTIINGGATSHLAPTDPADRLIDTCRECGARALELMGQLQDQQALRHMQASLVRTPLQGILQLGQELKPKSLDVRQEELGAVVDKEMAATSAAIEDAVRRIEDMMNQARHASSGVKLEVNERILNSCTDLMKAIRLLVTTSTSLQKEIVESGRGAATQQEFYAKNSRWTEGLISASKAVGWGATQLVEAADKVVLHTGKYEELIVCSHEIAASTAQLVAASKVKANKHSPHLSRLQECSRTVNERAANVVASTKSGQEQIEDRDTMDFSGLSLIKLKKQEMETQVRVLELEKTLEAERMRLGELRKQHYVLAGASGSPGEEVAIRPSTAPRSVTTKKPPLAQKPSVAPRQDHQLDKKDGIYPAQLVNY
B4: CO-26 (MNK 1): serologically defined colon cancer antigen, protein SEQ ID NO:27 (protein, listed as Homo sapiens)
chain: HIQKQKHFNEREASRVVRDVAAALDFLHTKGIAHRDLKPENILCESPEKVSPVKICDFDLGSGMKLNNSCTPITTPELTTPCGSAEYMAPEVVEVFTDQATFYDKRCDLWSLGVVLYIMLSGYPPFVGHCGADCGWDRGEVCRVCQNKLFESIQEGKYEFPDKDWAHISSEAKDLISKLLVRDAKQKLSAAQVLQHPWVQGQAPEKGLPTPQVLQRNSSTMDLTLFAAEAIALNRQLSQHEENELAEEPEALADGLCSMKLSPPCKSRLARRRALAQAGRGENRSPPTAL
B5: CO-41 (MBD2): serologically defined colon cancer antigen, protein SEQ ID NO:23 (protein, listed as Homo sapiens)
chain: PSKLQKNKQRLRNDPLNQNKGKPDLNTTLPIRQTASIFKQPVTKVTNHPSNKVKSDPQRMNEQPRQLFWEKRLQGLSASDVTEQIIKTMELPKGLQGVGPGSNDETLLSAVASALHTSSAPITGQVSAAVEKNPAVWLNTSQPLCKAFIVTDEDIRKQEERVQQVRKKLEEALMADILSRAADTEEMDIEMDSGDEA
B6: MAGE-3: serologically defined colon cancer antigen, protein SEQ ID NO:29 (protein, listed as Homo sapiens)
chain: MPLEQRSQHCKPEEGLEARGEALGLVGAQAPATEEQEAASSSSTLVEVTLGEVPAAESPDPPQSPQGASSLPTTMNYPLWSQSYEDSSNQEEEGPSTFPDLESEFQAALSRKVAELVHFLLLKYRAREPVTKAEMLGSVVGNWQYFFPVIFSKASSSLQLVFGIELMEVDPIGHLYIFATCLGLSYDGLLGDNQIMPKAGLLIIVLAIIAREGDCAPEEKIWEELSVLEVFEGREDSILGDPKKLLTQHFVQENYLEYRQVPGSDPACYEFLWGPRALVETSYVKVLHHMVKISGGPHISYPPLHEWVLREGEE
B7: CO-42 (TRIP4): serologically defined colon cancer antigen, protein SEQ ID NO:22 (protein, listed as Homo sapiens)
chain: AEVKTPFDLAKAQENSNSVKKKTKFVNLYTRERQDRLAVLLPGRHPCDCLGQKHKLINNCLICGRIVCEQEGSGPCLFCGTLVCTHEEQDILQRDSNKSQKLLKKLMSGVENSGKVDISTKDLLPHQELRIKSGLEKAIKHKDKLLEFDRTSIRRTQVIDDESDYFASDSNQWLSKLERETLQKREEELRELRHASRLSKKVTIDFAGRKILEEENSLAEYHSRLDETIQAIANGTLNQPLTKLDRSSEEPLGVLVNPNMYQSPPQWLTTQVQPHRRRLSVLQDLD
B8: REN-32 (Lamin C): serologically defined colon cancer antigen, protein SEQ ID NO:25 (protein, listed as Homo sapiens)
chain: METPSQRRATRSGAQASSTPLSPTRITRLQEKEDLQELNDRLAVYIDRVRSLETENAGLRLRITESEEVVSREVSGIKAAYEAELGDARKTLDSVAKERARLQLELSKVREEFKELKARNTKKEGDLIAAQARLKDLEALLNSKEAALSTALSEKRTLEGELHDLRGQVAKLEAALGEAKKQLQDEMLRRVDAENRLQTMKEELDFQKNIYSEELRETKRRHETRLVEIDNGKQREFESRLADALQELRAQHEDQVEQYKKELEKTYSAKLDNARQSAERNSNLVGAAHEELQQSRIRIDSLSAQLSQLQKQLAAKEAKLRDLEDSLARERDTSRRLLAEKEREMAEMRARMQQQLDEYQELLDIKLALDMEIHAYRKLLEGEEERLRLSPSPTSQRSRGRASSHSSQTQGGGSVTKKRKLESTESRSSFSQHARTSGRVAVEEVDEEGKFVRLRNKSNEDQSMGNWQIKRQNGDDPLLTYRFPPKFTLKAGQVVTIWAAGAGATHSPPTDLVWKAQNTWGCGNSLRTALINSTGEEVAMRKLVR
B9: CO-94 (seb4D): serologically defined colon cancer antigen, protein SEQ ID NO:17 (protein, listed as Homo sapiens)
chain: RPSLPRALPAAPHERSPARPGSVGGGAPPMLLQPAPCAPSAGFPRPLAAPGAMHLFAEGHHVHQDLRGRPAVPHYRRLAQEVLXGLRRHLRRPWSSPTAXRASPAATAS
modifications: X: residue not identified in the source
B10: CO-45 (Tudor like): serologically defined colon cancer antigen, protein SEQ ID NO:21 (protein, listed as Homo sapiens)
chain: RVKATLSERKIGDSCDKDLPLKFCEFPQKTIMPGFKTTVYVSHINDLSDFYVQLIEDEAEISHLSERLNSVKTRPEYYVGPPLQRGDMICAVFPEDNLWYRAVIKEQQPNDLLSVQFIDYGNVSVVHTNKIGRLDLVNAILPGLCIHCSLQGFEVPDNKNSKKMMHYFSQRTSEAAIRCEFVKFQDRWEVILADEHGIIADDMISRYALSEKSQVELSTQVIKSASSKSVNKSDIDTSVFLNWYNPEKKMIRAYATVIDGPEYFWCQFADTEKLQCLEVEVQTAGEQVADRRNCIPCPYIGDPCIVRYREDGHYYRALITNICEDYLVSVRLVDFGNIEDCVDPKALWAIPSELLSVPMQAFPCCLSGFNISEGLCSQEGNDYFYEIITEDVLEITILEIRRDVCDIPLAIVDLKSKGKSINEKMEKYSKTGIKSALPYENIDSEIKQTLGSYNLDVGLKKLSNKAVQNKIYMEQQTDELAEITEKDVNIIGTKPSNFRDPKTDNICEGFENPCKDKIDTEELEGELECHLVDKAEFDDKYLITGFNTLLPHANETKEILELNSLEVPLSPDDESKEFLELESIELQNSLVVDEEKGELSPVPPNVPLSQECVTKGAMELFTLQLPLSCEAEKQPELELPTAQLPLDDKMDPLSLGVSQKAQESMCTEDMRKSSCVESFDDQRRMSLHLHGADCDPKTQNEMNICEEEFVEYKNRDAISALMPFSLRKKAVMEASTIMVYQIIFQNYRTPTL

tested on: sera from colon cancer patients; test: Spot assay: reactivity of serologically defined colon cancer antigens with colon cancer patient sera; assay type: binding, human; conditions: reactive sera/sera tested; includes autologous where applicable; sera 1:200
Experimental: Serum samples from patients with colon cancer were screened using a modification of the plaque assay, termed a spot assay. In this method, 80×120 mm nitrocellulose membranes were precoated with a film of NZY/0.7% Agarose/2.5 mM IPTG and placed on a reservoir layer of NZY/0.7% Agarose in a 86×128 mm Omni Tray (Nalge Nunc International Corp., Naperville, Ill.). Approximately 1.0×10^5 pfU of monoclonal phage encoding individual serologically defined colon cancer antigens, in a volume of 20 μl, were mixed with 20 μl of exponentially growing E. coli XL-1 Blue MRF and spotted (0.7-μl aliquots) on the precoated nitrocellulose membranes. Membranes were incubated for 15 hours at 37° C. A total of 75 different serologically defined colon cancer antigens were spotted in duplicate per nitrocellulose membrane. The agarose film was then removed from the membrane and the filters were processed for reactivity with individual serum samples (1:200 dilution), as described in Scanlan, et al., Int. J. Cancer 76:652-658 (1998) and Scanlan, et al., Int. J. Cancer 83:456-64, (1999).

| Molecule | Reactivity of individual antigens |
| --- | --- |
| B1 | 2/75 |
| B2 | 3/76 |
| B3 | 5/75 |
| B4 | 2/76 |
| B5 | 3/76 |
| B6 | 6/75 |
| B7 | 7/76 |
| B8 | 3/75 |
| B9 | 4/75 |
| B10 | 4/76 |
